In publication PMC11487180:

Legend:
[1] = biological target: PAK6 (Homo sapiens) (UniProt Q9NQU5); conditions: cited from earlier work
[2] = biological target: 3xFlag tagged PAK6, full-length, purified from HEK293 cells (human) (UniProt Q9NQU5); test: MST; NT-647-NHS labelled PAK6 full-length at 100 nM; unlabelled MBP-LRRK2-Roc-COR titrated (R1441C 3.4 nM to 110 µM, Y1699C 3.6 nM to 118 µM); guanine nucleotides at 0.5 mM; Monolith NT.115, IR laser power 80%; analysed by PALMIST
[3] = biological target: MBP-LRRK2-Roc-COR (wild type) (human) (UniProt Q5S007); test: MST; NT-647-NHS labelled MBP-LRRK2-Roc-COR at 100 nM; unlabelled GST, GST-CRIB-PAK5 or GST-CRIB-PAK6 titrated; guanine nucleotides at 0.5 mM; Monolith NT.115, IR laser power 80%; analysed by PALMIST
MBP-LRRK2-Roc-COR (wild type) (human), sequence (Q5S007 whole entry): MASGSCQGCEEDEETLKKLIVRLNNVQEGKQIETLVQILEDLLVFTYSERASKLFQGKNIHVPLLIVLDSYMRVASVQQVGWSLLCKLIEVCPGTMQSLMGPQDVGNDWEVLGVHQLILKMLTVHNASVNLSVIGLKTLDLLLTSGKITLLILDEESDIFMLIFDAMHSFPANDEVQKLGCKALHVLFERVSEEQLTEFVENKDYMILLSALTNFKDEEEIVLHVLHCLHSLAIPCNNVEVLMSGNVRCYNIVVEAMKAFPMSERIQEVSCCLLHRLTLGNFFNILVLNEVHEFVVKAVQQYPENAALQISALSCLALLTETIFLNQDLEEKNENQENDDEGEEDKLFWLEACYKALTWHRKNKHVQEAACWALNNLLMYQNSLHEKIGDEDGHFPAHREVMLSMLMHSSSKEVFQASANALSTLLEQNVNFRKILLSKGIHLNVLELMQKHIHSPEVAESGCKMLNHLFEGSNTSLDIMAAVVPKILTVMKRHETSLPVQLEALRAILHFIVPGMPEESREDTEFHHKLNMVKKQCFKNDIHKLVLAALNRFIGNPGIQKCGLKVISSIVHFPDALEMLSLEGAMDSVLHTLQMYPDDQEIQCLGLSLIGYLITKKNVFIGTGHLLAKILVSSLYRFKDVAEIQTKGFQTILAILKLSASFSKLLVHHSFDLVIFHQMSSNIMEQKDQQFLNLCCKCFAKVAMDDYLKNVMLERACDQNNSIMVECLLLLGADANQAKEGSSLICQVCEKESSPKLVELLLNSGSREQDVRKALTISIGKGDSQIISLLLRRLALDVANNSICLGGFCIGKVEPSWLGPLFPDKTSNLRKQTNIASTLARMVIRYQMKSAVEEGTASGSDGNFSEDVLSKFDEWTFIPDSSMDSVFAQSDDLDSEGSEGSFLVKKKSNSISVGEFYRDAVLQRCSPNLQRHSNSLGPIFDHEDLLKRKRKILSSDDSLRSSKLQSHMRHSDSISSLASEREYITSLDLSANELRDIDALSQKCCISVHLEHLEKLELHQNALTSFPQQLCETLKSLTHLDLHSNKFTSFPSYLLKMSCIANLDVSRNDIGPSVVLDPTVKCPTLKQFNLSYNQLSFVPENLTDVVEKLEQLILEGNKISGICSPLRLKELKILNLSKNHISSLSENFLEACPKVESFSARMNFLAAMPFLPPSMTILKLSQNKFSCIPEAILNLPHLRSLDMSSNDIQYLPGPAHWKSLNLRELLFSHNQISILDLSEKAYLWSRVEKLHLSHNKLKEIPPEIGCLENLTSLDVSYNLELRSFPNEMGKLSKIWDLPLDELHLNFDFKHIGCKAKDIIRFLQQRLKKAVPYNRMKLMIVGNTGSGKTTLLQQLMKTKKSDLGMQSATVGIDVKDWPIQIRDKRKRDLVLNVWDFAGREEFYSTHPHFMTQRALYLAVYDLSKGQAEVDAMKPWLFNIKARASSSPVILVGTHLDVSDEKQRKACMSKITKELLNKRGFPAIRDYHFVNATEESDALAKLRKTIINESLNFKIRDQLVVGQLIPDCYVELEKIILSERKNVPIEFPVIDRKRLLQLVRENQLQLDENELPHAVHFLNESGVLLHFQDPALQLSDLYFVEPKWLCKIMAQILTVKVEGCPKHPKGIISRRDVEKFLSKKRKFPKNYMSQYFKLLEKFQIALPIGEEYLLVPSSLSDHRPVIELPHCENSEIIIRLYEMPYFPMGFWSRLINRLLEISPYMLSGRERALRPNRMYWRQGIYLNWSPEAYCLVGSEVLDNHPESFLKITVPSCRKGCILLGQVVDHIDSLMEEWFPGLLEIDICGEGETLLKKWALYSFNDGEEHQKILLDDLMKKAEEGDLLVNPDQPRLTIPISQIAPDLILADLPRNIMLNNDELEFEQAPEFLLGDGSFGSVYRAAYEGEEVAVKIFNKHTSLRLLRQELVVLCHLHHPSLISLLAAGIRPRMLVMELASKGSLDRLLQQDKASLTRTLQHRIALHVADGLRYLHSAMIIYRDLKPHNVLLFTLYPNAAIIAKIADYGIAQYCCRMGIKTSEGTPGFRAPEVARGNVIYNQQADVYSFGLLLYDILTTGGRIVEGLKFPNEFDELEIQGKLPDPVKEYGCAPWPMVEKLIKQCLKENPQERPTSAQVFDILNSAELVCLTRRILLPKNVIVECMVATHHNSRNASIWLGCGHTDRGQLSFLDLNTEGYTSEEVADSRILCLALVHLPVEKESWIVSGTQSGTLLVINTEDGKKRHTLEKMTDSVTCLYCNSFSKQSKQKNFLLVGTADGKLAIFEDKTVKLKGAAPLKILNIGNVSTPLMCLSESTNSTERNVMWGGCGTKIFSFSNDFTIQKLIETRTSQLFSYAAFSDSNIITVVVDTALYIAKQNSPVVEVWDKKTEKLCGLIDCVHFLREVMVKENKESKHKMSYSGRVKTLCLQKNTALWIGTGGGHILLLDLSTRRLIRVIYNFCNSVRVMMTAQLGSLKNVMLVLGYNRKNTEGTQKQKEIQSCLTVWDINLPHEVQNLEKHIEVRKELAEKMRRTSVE

3xFlag tagged PAK6, full-length, purified from HEK293 cells (human), sequence (Q9NQU5 whole entry): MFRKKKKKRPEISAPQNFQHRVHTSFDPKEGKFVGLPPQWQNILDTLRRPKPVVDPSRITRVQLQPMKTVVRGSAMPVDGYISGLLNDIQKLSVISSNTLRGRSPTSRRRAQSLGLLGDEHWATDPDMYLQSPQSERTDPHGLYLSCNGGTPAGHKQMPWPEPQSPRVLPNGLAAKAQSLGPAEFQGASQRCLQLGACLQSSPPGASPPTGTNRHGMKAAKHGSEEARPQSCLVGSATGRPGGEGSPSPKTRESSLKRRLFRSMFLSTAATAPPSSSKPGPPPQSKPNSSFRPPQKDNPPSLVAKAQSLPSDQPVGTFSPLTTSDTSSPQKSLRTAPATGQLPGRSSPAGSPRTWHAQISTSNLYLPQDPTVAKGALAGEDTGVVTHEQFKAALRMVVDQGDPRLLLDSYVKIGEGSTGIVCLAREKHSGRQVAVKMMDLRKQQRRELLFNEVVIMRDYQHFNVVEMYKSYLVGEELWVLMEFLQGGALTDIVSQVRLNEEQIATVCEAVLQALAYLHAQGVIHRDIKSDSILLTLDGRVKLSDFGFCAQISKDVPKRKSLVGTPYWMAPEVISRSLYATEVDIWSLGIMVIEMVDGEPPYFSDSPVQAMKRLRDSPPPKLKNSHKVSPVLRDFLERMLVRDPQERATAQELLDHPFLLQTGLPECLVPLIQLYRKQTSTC
GST-CRIB(PAK5), sequence (Q9P286 10-44): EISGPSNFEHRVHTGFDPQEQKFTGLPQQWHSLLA
GST-CRIB(PAK6), sequence (Q9NQU5 11-45): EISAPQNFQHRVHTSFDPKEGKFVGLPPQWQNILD
LRRK2 Roc-COR, sequence (Q5S007 1328-1840): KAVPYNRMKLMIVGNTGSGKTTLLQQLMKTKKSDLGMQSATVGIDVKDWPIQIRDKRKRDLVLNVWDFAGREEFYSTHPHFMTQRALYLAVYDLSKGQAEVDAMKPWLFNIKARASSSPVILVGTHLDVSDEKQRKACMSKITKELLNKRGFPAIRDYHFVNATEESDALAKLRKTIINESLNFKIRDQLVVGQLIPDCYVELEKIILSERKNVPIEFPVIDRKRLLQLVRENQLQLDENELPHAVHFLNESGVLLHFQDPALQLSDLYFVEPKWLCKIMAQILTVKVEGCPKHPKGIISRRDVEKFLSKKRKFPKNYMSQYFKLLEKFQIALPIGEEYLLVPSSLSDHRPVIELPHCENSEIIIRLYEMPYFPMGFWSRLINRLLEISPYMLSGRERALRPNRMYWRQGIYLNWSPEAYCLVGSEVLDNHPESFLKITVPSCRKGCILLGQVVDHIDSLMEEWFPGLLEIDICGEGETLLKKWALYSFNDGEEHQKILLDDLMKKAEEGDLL
PAK6 (Homo sapiens), sequence (Q9NQU5 whole entry): as the sequence (Q9NQU5 whole entry) above

| Substance | Kd [2] [µM] | Kd [3] [µM] | also measured |
| --- | --- | --- | --- |
| LRRK2 Roc-COR (from UniProt Q5S007) | – | – | Kd [1]: 10 µM |
| GST-CRIB(PAK6) (from UniProt Q9NQU5 11-45) (domain or fragment) | – | 12 | – |

Continued, in another order:

| Kd [2] [µM] | Kd [3] [µM] | Substance | also measured |
| --- | --- | --- | --- |
| 38.2 | – | MBP-LRRK2-Roc-COR Y1699C (from UniProt Q5S007 1-2527) (domain or fragment) | – |
| 51.8 | – | MBP-LRRK2-Roc-COR R1441C (from UniProt Q5S007 1-2527) (domain or fragment) | – |
| – | 112 | GST-CRIB(PAK5) (from UniProt Q9P286 10-44) (domain or fragment) | – |
